Experimental data taken from the Human Domainome abundance scans (Beltran et al. 2025).
± gives the uncertainty stated by the source.

B1: TOX high mobility group box family member 3, residues 256 to 323; numbered along this chain, O15405 (parent)
chain: QKPVSAYALFFRDTQAAIKGQNPNATFGEVSKIVASMWDSLGEEQKQVYKRKTEAAKKEYLKALAAYR

Variants of: B1
Assay: abundance fitness (aPCA) (normalised: wild type 0, dead -1); higher = more abundant; growth selection in yeast, the domain comes from the species named
Details: Homo sapiens

Going from QKPVSAYALFFRDTQAAIKGQNPNATFGEVSKIVASMWDSLGEEQYQVYKRKTEAAKKEYLKALAAYR [K46Y] to QKPVSAYALFFRDTQAAIKGQNPNATFGEVSKIVASMWDSLGEEQKAVYKRKTEAAKKEYLKALAAYR [Q47A], the abundance fitness rises from -0.529 ± 0.17 to -0.101 ± 0.075.

Going from QKPVSAYALFFRDTQAAIKGQNPNATFGEVSKIVASMWDSLGEEQKCVYKRKTEAAKKEYLKALAAYR [Q47C] to QKPVSAYALFFRDTQAAIKGQNPNATFGEVSKIVASMWDSLGEEQKDVYKRKTEAAKKEYLKALAAYR [Q47D], the abundance fitness rises from -0.195 ± 0.061 to 0.033 ± 0.12.

Going from QKPVSAYALFFRDTQAAIKGQNPNATFGEVSKIVASMWDSLGEEQKEVYKRKTEAAKKEYLKALAAYR [Q47E] to QKPVSAYALFFRDTQAAIKGQNPNATFGEVSKIVASMWDSLGEEQKFVYKRKTEAAKKEYLKALAAYR [Q47F], the abundance fitness falls from -0.052 ± 0.1 to -0.445 ± 0.14.

QKPVSAYALFFRDTQAAIKGQNPNATFGEVSKIVASMWDSLGEEQKGVYKRKTEAAKKEYLKALAAYR [Q47G] and QKPVSAYALFFRDTQAAIKGQNPNATFGEVSKIVASMWDSLGEEQKHVYKRKTEAAKKEYLKALAAYR [Q47H] are within error of each other in abundance fitness: -0.103 ± 0.05 for the first, -0.232 ± 0.1 for the second.

QKPVSAYALFFRDTQAAIKGQNPNATFGEVSKIVASMWDSLGEEQKIVYKRKTEAAKKEYLKALAAYR [Q47I] and QKPVSAYALFFRDTQAAIKGQNPNATFGEVSKIVASMWDSLGEEQKKVYKRKTEAAKKEYLKALAAYR [Q47K] are within error of each other in abundance fitness: -0.498 ± 0.49 for the first, -0.048 ± 0.087 for the second.

QKPVSAYALFFRDTQAAIKGQNPNATFGEVSKIVASMWDSLGEEQKLVYKRKTEAAKKEYLKALAAYR [Q47L] and QKPVSAYALFFRDTQAAIKGQNPNATFGEVSKIVASMWDSLGEEQKMVYKRKTEAAKKEYLKALAAYR [Q47M] are within error of each other in abundance fitness: -0.211 ± 0.061 for the first, -0.11 ± 0.089 for the second.

Compared with QKPVSAYALFFRDTQAAIKGQNPNATFGEVSKIVASMWDSLGEEQKNVYKRKTEAAKKEYLKALAAYR [Q47N], QKPVSAYALFFRDTQAAIKGQNPNATFGEVSKIVASMWDSLGEEQKPVYKRKTEAAKKEYLKALAAYR [Q47P] is lower in abundance fitness: 0.102 ± 0.095 for the first, -0.812 ± 0.12 for the second.

QKPVSAYALFFRDTQAAIKGQNPNATFGEVSKIVASMWDSLGEEQKRVYKRKTEAAKKEYLKALAAYR [Q47R] and QKPVSAYALFFRDTQAAIKGQNPNATFGEVSKIVASMWDSLGEEQKSVYKRKTEAAKKEYLKALAAYR [Q47S] are within error of each other in abundance fitness: -0.032 ± 0.037 for the first, -0.079 ± 0.054 for the second.

Compared with QKPVSAYALFFRDTQAAIKGQNPNATFGEVSKIVASMWDSLGEEQKTVYKRKTEAAKKEYLKALAAYR [Q47T], QKPVSAYALFFRDTQAAIKGQNPNATFGEVSKIVASMWDSLGEEQKVVYKRKTEAAKKEYLKALAAYR [Q47V] is higher in abundance fitness: -0.42 ± 0.14 for the first, -0.033 ± 0.086 for the second.

Compared with QKPVSAYALFFRDTQAAIKGQNPNATFGEVSKIVASMWDSLGEEQKYVYKRKTEAAKKEYLKALAAYR [Q47Y], QKPVSAYALFFRDTQAAIKGQNPNATFGEVSKIVASMWDSLGEEQKQGYKRKTEAAKKEYLKALAAYR [V48G] is higher in abundance fitness: 0.029 ± 0.13 for the first, 0.505 ± 0.26 for the second.

QKPVSAYALFFRDTQAAIKGQNPNATFGEVSKIVASMWDSLGEEQKQIYKRKTEAAKKEYLKALAAYR [V48I] and QKPVSAYALFFRDTQAAIKGQNPNATFGEVSKIVASMWDSLGEEQKQVYARKTEAAKKEYLKALAAYR [K50A] are within error of each other in abundance fitness: -0.133 ± 0.19 for the first, -0.15 ± 0.24 for the second.

QKPVSAYALFFRDTQAAIKGQNPNATFGEVSKIVASMWDSLGEEQKQVYRRKTEAAKKEYLKALAAYR [K50R] and QKPVSAYALFFRDTQAAIKGQNPNATFGEVSKIVASMWDSLGEEQKQVYSRKTEAAKKEYLKALAAYR [K50S] are within error of each other in abundance fitness: 0.079 ± 0.25 for the first, -0.181 ± 0.36 for the second.

QKPVSAYALFFRDTQAAIKGQNPNATFGEVSKIVASMWDSLGEEQKQVYKAKTEAAKKEYLKALAAYR [R51A] and QKPVSAYALFFRDTQAAIKGQNPNATFGEVSKIVASMWDSLGEEQKQVYKDKTEAAKKEYLKALAAYR [R51D] are within error of each other in abundance fitness: -0.031 ± 0.049 for the first, 0.101 ± 0.083 for the second.

Compared with QKPVSAYALFFRDTQAAIKGQNPNATFGEVSKIVASMWDSLGEEQKQVYKEKTEAAKKEYLKALAAYR [R51E], QKPVSAYALFFRDTQAAIKGQNPNATFGEVSKIVASMWDSLGEEQKQVYKFKTEAAKKEYLKALAAYR [R51F] is lower in abundance fitness: 0.222 ± 0.079 for the first, -0.256 ± 0.066 for the second.

QKPVSAYALFFRDTQAAIKGQNPNATFGEVSKIVASMWDSLGEEQKQVYKGKTEAAKKEYLKALAAYR [R51G] and QKPVSAYALFFRDTQAAIKGQNPNATFGEVSKIVASMWDSLGEEQKQVYKHKTEAAKKEYLKALAAYR [R51H] are within error of each other in abundance fitness: -0.032 ± 0.049 for the first, -0.018 ± 0.054 for the second.

Going from QKPVSAYALFFRDTQAAIKGQNPNATFGEVSKIVASMWDSLGEEQKQVYKIKTEAAKKEYLKALAAYR [R51I] to QKPVSAYALFFRDTQAAIKGQNPNATFGEVSKIVASMWDSLGEEQKQVYKKKTEAAKKEYLKALAAYR [R51K], the abundance fitness rises from -0.175 ± 0.082 to 0.05 ± 0.084.

QKPVSAYALFFRDTQAAIKGQNPNATFGEVSKIVASMWDSLGEEQKQVYKLKTEAAKKEYLKALAAYR [R51L] and QKPVSAYALFFRDTQAAIKGQNPNATFGEVSKIVASMWDSLGEEQKQVYKMKTEAAKKEYLKALAAYR [R51M] are within error of each other in abundance fitness: 0.021 ± 0.04 for the first, -0.069 ± 0.056 for the second.

Going from QKPVSAYALFFRDTQAAIKGQNPNATFGEVSKIVASMWDSLGEEQKQVYKNKTEAAKKEYLKALAAYR [R51N] to QKPVSAYALFFRDTQAAIKGQNPNATFGEVSKIVASMWDSLGEEQKQVYKPKTEAAKKEYLKALAAYR [R51P], the abundance fitness falls from -0.017 ± 0.052 to -0.225 ± 0.059.

QKPVSAYALFFRDTQAAIKGQNPNATFGEVSKIVASMWDSLGEEQKQVYKQKTEAAKKEYLKALAAYR [R51Q] and QKPVSAYALFFRDTQAAIKGQNPNATFGEVSKIVASMWDSLGEEQKQVYKSKTEAAKKEYLKALAAYR [R51S] are within error of each other in abundance fitness: -0.041 ± 0.058 for the first, -0.02 ± 0.044 for the second.

In the case of QKPVSAYALFFRDTQAAIKGQNPNATFGEVSKIVASMWDSLGEEQKQVYKTKTEAAKKEYLKALAAYR [R51T], the abundance fitness is reported as 0.042 ± 0.047.
